# Starred links: 1 amine or outer side, 2 acyl side, 3 side chain; linkers in the order of their positions; H or OH if unused. Positions of bridges follow the written chain, without caps; N, C: chain ends. Non-standard residues stand in square brackets, D forms with d. Primed or numbered codes have the meaning given here. PyrS2″ = (S)-3-amino-1-((pent-4-en-1-yloxy)carbonyl)pyrrolidine-3-carboxylic acid (stapling residue), C=CCCCOC(=O)N1CC[C@@](N[*:1])(C(=O)[*:2])C1; B5(4) = 2,2-bis(4-pentenyl)glycine = 2-amino-2-(pent-4-en-1-yl)hept-6-enoic acid (stitching residue), C=CCCCC(CCCC=C)(N[*:1])C(=O)[*:2]; B5(5) = 2,2-bis(4-pentenyl)glycine, 2-amino-2-(pent-4-en-1-yl)hept-6-enoic acid (stitching residue), C=CCCCC(CCCC=C)(N[*:1])C(=O)[*:2]; (NMe2)GlnR(3) = [NMe2]GlnR, N5,N5-dimethyl-L-glutamine, CN(C)C(=O)CC[C@H](N[*:1])C(=O)[*:2]; AcLys″ = N6-acetyl-lysine, CC(=O)NCCCC[C@H](N[*:1])C(=O)[*:2]; Phe(3-COOH) = N[C@@H](Cc1cccc(C(=O)O)c1)C(=O)O; 2F3MeF = Cc1cccc(C[C@H](N[*:1])C(=O)[*:2])c1F; Phe(2-CF3) = N[C@@H](Cc1ccccc1C(F)(F)F)C(=O)O; AcLys = CC(=O)NCCCC[C@H](N[*:1])C(=O)[*:2]; Bta = N[C@@H](Cc1csc2ccccc12)C(=O)O; αAllylPro = C=CC[C@@]1(C(=O)O)CCCN1; tBuAla = CC(C)(C)C[C@H](N)C(=O)O; 3Thi = N[C@@H](Cc1ccsc1)C(=O)O; S8 = C=CCCCCCC[C@](C)(N)C(=O)O; Nle = CCCC[C@H](N)C(=O)O; Aib = CC(C)(N)C(=O)O
# T1: B-cat-Halo (UniProt P35222 1-781, HaloTag NanoBRET 618 Ligand bound in the assay)
# T1 sequence (looked up): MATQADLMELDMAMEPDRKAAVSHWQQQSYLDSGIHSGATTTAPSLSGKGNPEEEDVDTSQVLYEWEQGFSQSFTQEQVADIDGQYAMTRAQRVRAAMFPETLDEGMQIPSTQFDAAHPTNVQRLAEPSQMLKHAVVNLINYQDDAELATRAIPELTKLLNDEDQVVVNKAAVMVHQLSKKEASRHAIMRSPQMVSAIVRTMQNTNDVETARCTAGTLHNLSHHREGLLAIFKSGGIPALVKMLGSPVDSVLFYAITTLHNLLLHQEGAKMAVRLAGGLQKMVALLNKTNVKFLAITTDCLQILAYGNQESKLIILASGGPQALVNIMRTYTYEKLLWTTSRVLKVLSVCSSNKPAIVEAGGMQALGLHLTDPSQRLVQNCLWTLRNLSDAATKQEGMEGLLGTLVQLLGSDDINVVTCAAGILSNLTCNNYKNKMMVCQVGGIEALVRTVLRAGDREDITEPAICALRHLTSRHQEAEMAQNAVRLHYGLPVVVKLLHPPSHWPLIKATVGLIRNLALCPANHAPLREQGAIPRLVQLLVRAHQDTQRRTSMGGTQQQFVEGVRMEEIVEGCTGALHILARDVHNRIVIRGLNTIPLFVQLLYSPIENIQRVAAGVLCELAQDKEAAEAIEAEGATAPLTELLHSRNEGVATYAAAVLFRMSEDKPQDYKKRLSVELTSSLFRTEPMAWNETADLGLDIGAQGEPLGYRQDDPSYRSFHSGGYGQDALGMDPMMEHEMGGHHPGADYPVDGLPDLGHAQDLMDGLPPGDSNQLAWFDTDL
# T2: full-length beta-Catenin (Uniprot ID P35222) (Homo sapiens (Human), UniProt P35222 1-781)
# T2 construct: also called bCat; B-Catenin
# T2 sequence: T1 sequence (looked up)
# B1: I-2538 (peptide)
# peptide: Ac-[αAllylPro]D[tBuAla][B5(4)]D[Phe(3-COOH)]AAF[MorphGln][PyrS2″][Phe(2-CF3)][Bta][Me2Gln]-NH2
# modifications: staple 1-4, 4-11; not fully specified; printed as Ac-PL3-Asp-Npg-B5-Asp-3COOHF-Ala-Ala-Phe-MorphGln-PyrS2-2F3MeF-BztA-Me2Gln-NH2
# B2: I-2547 (peptide)
# peptide: Ac-[αAllylPro]D[tBuAla][B5(4)]D[Phe(3-COOH)]AAF[MorphGln][PyrS2″][2F3MeF][Bta][MorphGln]-NH2
# modifications: staple 1-4, 4-11; not fully specified; printed as Ac-PL3-Asp-Npg-B5-Asp-3COOHF-Ala-Ala-Phe-MorphGln-PyrS2-2F3MeF-BztA-MorphGln-NH2
# B3: I-2549 (peptide)
# peptide: Ac-[αAllylPro]D[tBuAla][B5(4)]D[Phe(3-COOH)]AAF[AcLys][PyrS2″][2F3MeF][Bta][MorphGln]-NH2
# modifications: staple 1-4, 4-11; not fully specified; printed as Ac-PL3-Asp-Npg-B5-Asp-3COOHF-Ala-Ala-Phe-AcLys-PyrS2-2F3MeF-BztA-MorphGln-NH2
# B4: I-2545 (peptide)
# peptide: Ac-[αAllylPro]D[tBuAla][B5(4)]D[Phe(3-COOH)]AAF[Me2Gln][PyrS2″][Phe(2-CF3)][Bta][MorphGln]-NH2
# modifications: staple 1-4, 4-11; not fully specified; printed as Ac-PL3-Asp-Npg-B5-Asp-3COOHF-Ala-Ala-Phe-Me2Gln-PyrS2-2F3MeF-BztA-MorphGln-NH2
# B5: I-2546 (peptide)
# peptide: Ac-[αAllylPro]D[tBuAla][B5(4)]D[Phe(3-COOH)]AAF[MorphGln][PyrS2″][2F3MeF][Bta][MorphGln]-NH2
# modifications: staple 1-4, 4-11; not fully specified; printed as Ac-PL3-Asp-Npg-B5-Asp-3COOHF-Ala-Ala-Phe-MorphGln-PyrS2-2F3MeF-BztA-MorphGln-NH2
# B6: I-2540 (peptide)
# peptide: Ac-[αAllylPro]D[tBuAla][B5(4)]D[Phe(3-COOH)]AAF[AcLys″][PyrS2″][Phe(2-CF3)][Bta][Me2Gln]-NH2
# modifications: staple 1-4, 4-11; not fully specified; printed as Ac-PL3-Asp-Npg-B5-Asp-3COOHF-Ala-Ala-Phe-AcLys-PyrS2-2F3MeF-BztA-Me2Gln-NH2
# B7: I-2539 (peptide)
# peptide: Ac-[αAllylPro]D[tBuAla][B5(4)]D[Phe(3-COOH)]AAF[AcLys][PyrS2″][2F3MeF][Bta][Me2Gln]-NH2
# modifications: staple 1-4, 4-11; not fully specified; printed as Ac-PL3-Asp-Npg-B5-Asp-3COOHF-Ala-Ala-Phe-AcLys-PyrS2-2F3MeF-BztA-Me2Gln-NH2
# B8: I-2536 (peptide)
# peptide: Ac-[αAllylPro]D[tBuAla][B5(4)]D[Phe(3-COOH)]AAF[Me2Gln][PyrS2″][2F3MeF][Bta][Me2Gln]-NH2
# modifications: staple 1-4, 4-11; not fully specified; printed as Ac-PL3-Asp-Npg-B5-Asp-3COOHF-Ala-Ala-Phe-Me2Gln-PyrS2-2F3MeF-BztA-Me2Gln-NH2
# B9: I-2537 (peptide)
# peptide: Ac-[αAllylPro]D[tBuAla][B5(4)]D[Phe(3-COOH)]AAF[MorphGln][PyrS2″][2F3MeF][Bta][Me2Gln]-NH2
# modifications: staple 1-4, 4-11; not fully specified; printed as Ac-PL3-Asp-Npg-B5-Asp-3COOHF-Ala-Ala-Phe-MorphGln-PyrS2-2F3MeF-BztA-Me2Gln-NH2
# B10: I-2544 (peptide)
# peptide: Ac-[αAllylPro]D[tBuAla][B5(4)]D[Phe(3-COOH)]AAF[Me2Gln][PyrS2″][2F3MeF][Bta][MorphGln]-NH2
# modifications: staple 1-4, 4-11; not fully specified; printed as Ac-PL3-Asp-Npg-B5-Asp-3COOHF-Ala-Ala-Phe-Me2Gln-PyrS2-2F3MeF-BztA-MorphGln-NH2
# B11: I-2548 (peptide)
# peptide: Ac-[αAllylPro]D[tBuAla][B5(4)]D[Phe(3-COOH)]AAF[AcLys][PyrS2″][2F3MeF][Bta][MorphGln]-NH2
# modifications: staple 1-4, 4-11; not fully specified; printed as Ac-PL3-Asp-Npg-B5-Asp-3COOHF-Ala-Ala-Phe-AcLys-PyrS2-2F3MeF-BztA-MorphGln-NH2
# B12: I-549 (peptide)
# peptide: XDIXDDAAFNXFXQ
# modifications: not fully specified; N-terminal Ac; PL3 at 1; B5 at 4; S8 at 11; 2OMeF at 12; BztA at 13; C-terminal NH2; staples PL3(1)-B5(4) and B5(4)-S8(11) by olefin metathesis
# notes: It has the same description as I-550 and is the earlier eluting HPLC peak (staple isomer composition)
# B13: I-558 (peptide)
# peptide: XDLXDDAAFQXFXQ
# modifications: not fully specified; N-terminal Ac; PL3 at 1; B5 at 4; S8 at 11; BztA at 13; C-terminal NH2; staples PL3(1)-B5(4) and B5(4)-S8(11) by olefin metathesis
# B14: I-554 (peptide)
# peptide: XDIXDDAAFNXFXH
# modifications: not fully specified; N-terminal Ac; PL3 at 1; B5 at 4; S8 at 11; 2OMeF at 12; BztA at 13; C-terminal NH2; staples PL3(1)-B5(4) and B5(4)-S8(11) by olefin metathesis
# B15: I-559 (peptide)
# peptide: XDLXDDAAFQXFXQ
# modifications: not fully specified; N-terminal Ac; PL3 at 1; B5 at 4; S8 at 11; BztA at 13; C-terminal NH2; staples PL3(1)-B5(4) and B5(4)-S8(11) by olefin metathesis
# notes: It has the same description as I-558 and is the later eluting HPLC peak (staple isomer composition)
# B16: I-553 (peptide)
# peptide: XDIXDDAAFNXFXH
# modifications: not fully specified; N-terminal Ac; PL3 at 1; B5 at 4; S8 at 11; 2OMeF at 12; BztA at 13; C-terminal NH2; staples PL3(1)-B5(4) and B5(4)-S8(11) by olefin metathesis
# notes: It has the same description as I-554 and is the earlier eluting HPLC peak (staple isomer composition)
# B17: I-561 (peptide)
# peptide: XDLXDDAAFQXFXH
# modifications: not fully specified; N-terminal Ac; PL3 at 1; B5 at 4; S8 at 11; BztA at 13; C-terminal NH2; staples PL3(1)-B5(4) and B5(4)-S8(11) by olefin metathesis
# notes: It has the same description as I-560 and is the later eluting HPLC peak (staple isomer composition)
# Biological target: T1, B-cat-Halo
# Experiment: cell-based or functional assay
row,NanoBRET Abs IC50 [µM],Binder
1,3.5,B1
2,3.5,B2
3,2.5,B3
4,4.7,"Ac-[αAllylPro]D[tBuAla][B5(4)]D[Phe(3-COOH)]AAFL[PyrS2″][Phe(2-CF3)][Bta][MorphGln]-NH2 (staple 1-4, 4-11) [I-2541]"
5,4,B4
6,10.4,"Ac-[αAllylPro]D[tBuAla][B5(4)]D[Phe(3-COOH)][Aib]AF[Nle][PyrS2″][3Thi][Bta][(NHEt)GlnR]-NH2 (staple 1-4, 4-11) [I-2552]"
7,4,"Ac-[αAllylPro]D[tBuAla][B5(4)]D[Phe(3-COOH)]AAF[Nle][PyrS2″][Phe(2-CF3)][Bta][MorphGln]-NH2 (staple 1-4, 4-11) [I-2542]"
8,3.5,B5
9,3.5,B6
10,9.8,"Ac-[αAllylPro]D[tBuAla][B5(4)]D[Phe(3-COOH)][Aib]AF[Nle][PyrS2″][3Thi][Bta][(NMe2)GlnR(3)]-NH2 (staple 1-4, 4-11) [I-2551]"
11,3.6,B7
12,4.5,B8
13,2.9,B9
14,7.3,"Ac-[αAllylPro]D[tBuAla][B5(4)]D[Phe(3-COOH)]AAFF[PyrS2″][Phe(2-CF3)][Bta][MorphGln]-NH2 (staple 1-4, 4-11) [I-2543]"
15,4.1,B10
16,3.6,B11

# Biological target: T2, full-length beta-Catenin (Uniprot ID …)
# Experiment: fluorescence polarization competition; full-length beta-catenin with 5FAM-labeled TCF4 residues 10-53 probe as competitor
# Procedure: The plate was incubated protected from light for 60 minutes at 20° C. prior to read. Reads were performed on a CLARIOstar plate reader (BMG Labtech) in duplicate, and data were fitted to a 1:1 binding model with hill slope using an in-house script. All provided concentrations are final concentrations.
row,IC50 [µM],Binder
1,0.071,B12
2,0.081,"Ac-[αAllylPro]DL[B5(5)]DDAAFQ[S8]F[Bta]H-NH2 (staple 1-4, 4-11) [I-560]"
3,0.056,B13
4,0.0275,B14
5,0.043,B15
6,0.061,B16
7,0.034,B17
